This note sets out measurements from the RNAGym collection of RNA variant scans (doi:10.7554/elife.80360).

To fix the notation:
B1: Hairpin Ribozyme (parent)
chain: GUCCUCUUUCACGUGCGCGUGAAAGAGAGAAGUGAACCAGAGAAACACACGUUGUGGUAUAUUACCUGGUA

The variants in the series derive from B1. In words: self-cleavage, relative activity (ratio to wild type); higher = more cleavage; co-transcriptional.
In the case of C50A G57C, the self-cleavage was determined as 0.133.
In the case of U2G A44U it was 0.0754; in that of C18A U70G, 0.862; in that of A30U A43C, 0.117.
Under C18A G34U stands 1.46.
In the case of C6G A22U it was 0.377; in that of G25A G40C, 0.145; in that of A35C G69C, 0.126.
Take A35C C65U: the self-cleavage was 0.433.
As for A22U G69U, the self-cleavage was determined as 0.259.
Under C3G U62A stands 0.107; under G54U C66U, 0.211.
In the case of C18G G68A it was 0.268; in that of G25U A61U, 0.185.
Under A11U A44U stands 0.22; under C4U G69A, 0.12; under U2G U8G, 0.471.
Regarding G29C C66U, the self-cleavage turned out to be 0.135.
In the case of C38G G42C it was 0.134.
For the variant U2G G29U, the self-cleavage was found to be 0.137.
Under A26U G27A stands 0.228; under A41C G57U, 0.502.
In the case of A41G G42A it was 0.282; in that of G15C A64U, 0.186; in that of A31U A64C, 0.0924.
Under A31U G40U stands 0.182; under A49U G68A, 0.172; under A30U A71G, 0.286.
With A11C U70A, the self-cleavage was 0.877.
In the case of G32A A45C it was 0.277.
As to A31C G42A, the self-cleavage stood at 0.164.
In the case of U53A U60A it was 1.08; in that of G29U A61G, 0.223; in that of U33G C65A, 0.189.
In the case of A31U U33G it was 0.143.
As to G13C A71G, the self-cleavage came to 0.823.
Under C16G G54C stands 0.393; under C3U A30G, 0.104.
Under A44C C48U stands 0.0439; under C6A A41U, 0.919.
For the variant A44G A61C, the self-cleavage is 0.0999.
Under G42A A59U stands 0.101; under A45U G68U, 0.258; under U5A U14A, 0.164.
In the case of A11C G27A it was 0.403; in that of C6U C48A, 0.209; in that of A43G A47G, 0.196.
In the case of U7C G56A it was 0.184; in that of C3U A39C, 0.199; in that of U63A G68U, 0.225.
Turning to C37G G51A, the self-cleavage stood at 0.647.
Under A22U A61U stands 0.198; under A41U A59C, 0.158.
Under A44C A47U stands 0.135; under C12A A49U, 0.256.
In the case of G27U A35C, the self-cleavage was determined as 0.44.
In the case of C10G G13U it was 0.528; in that of A11U G56U, 0.131; in that of A31U U52A, 0.048.
In the case of C37G U70A it was 0.488; in that of G56A U70A, 0.223; in that of U55C G57C, 0.12.
On to G19A C65U, for which the self-cleavage was 0.265.
In the case of A26G A49G it was 0.665; in that of A28U U70G, 0.338.
Under A22U A47U stands 0.202; under G21C G25A, 0.165.
For A22U U62C, the self-cleavage was 0.127.
In the case of G32A G51C it was 0.113.
Under G21A G34U stands 1.08; under U53A U58A, 0.746.
Under A11C A59U stands 0.112; under C46G A49G, 0.137; under G27A A45G, 0.196.
Regarding G51U G56A, the self-cleavage was 0.153.
In the case of U9G A35U it was 0.631; in that of C18U A28G, 1.26; in that of A61G A71C, 0.308.
In the case of G17U U55A it was 0.142.
Take C12G G29A: the self-cleavage is 0.138.
Under C16G A44U stands 0.16; under U8G G15A, 0.897; under G27C C66A, 0.157.
G34C G69A: the self-cleavage was determined as 0.896.
In the case of G54U A61U it was 0.268; in that of G1A U9C, 0.167.
For the variant A11U A39U, the self-cleavage worked out at 0.309.
Under U2C G29A stands 0.0747.
Regarding A22U A41U, the self-cleavage was determined as 1.14.
In the case of A23C A24G it was 0.85; in that of C38G A44G, 0.335; in that of C12A A71G, 0.848.
Under A26U G68C stands 0.103; under G1U U7C, 0.0995.
Under U5C G69C stands 0.0944; under U9G A26U, 0.477.
Regarding A45U C46G, the self-cleavage is 0.241.
For C3A G40U, the self-cleavage stood at 0.194.
Under A22U G40A stands 0.218; under C6G A43G, 0.0944; under C4U G42U, 0.129.
On to C10A, for which the self-cleavage turned out to be 0.722.
As to G27U A61G, the self-cleavage stood at 0.171.
On to U5G G68C, for which the self-cleavage amounted to 0.
Under A36U A44G stands 0.183; under G25A A30C, 0.087; under C38G G57C, 0.103.
Under U8G G42A stands 0.156; under C10G A71G, 0.705; under A23C U52C, 0.77.
Take U20G A71U: the self-cleavage stood at 0.605.
Under C50A U62C stands 0.147.
Under G34A A44C stands 0.223.
In the case of G34A A44G it was 0.259.
As for A36C G40U, the self-cleavage was 0.122.
In the case of U60G U63G it was 0.0801.
Under C50U C65G stands 0.161; under C12A G34C, 1.17.
In the case of G1U G34C it was 0.143.
Regarding G13C C16U, the self-cleavage came to 0.573.
In the case of C10U C37A it was 0.364; in that of A26C C66G, 0.12; in that of A43G G51A, 0.0738.
In the case of G40A U67C it was 0.121.
Under A36U U67C stands 0.133; under G17U U53A, 0.841.
Regarding U20G C65A, the self-cleavage stood at 0.895.
Under A31U C65U stands 0.121; under A11G A31C, 0.0862.
Under A30C A59U stands 0.169.
Under U5A U52G stands 0.392; under U9G G42A, 0.109.
With A23C A39G, the self-cleavage stood at 0.248.
In the case of A43G G69C it was 0.268; in that of A31G U63G, 0.135.
In the case of C3A A24C it was 0.775.
Under A23G C46G stands 0.245; under A36G A61C, 0.328.
G13U A45G: the self-cleavage is 0.0663.
Turning to U58C U60C, the self-cleavage was 1.19.
Take C3A A11U: the self-cleavage was 0.517.
Under G25C U63A stands 0.0846; under U20G A24C, 0.789.
In the case of A30C G42A it was 0.0752; in that of A28U U67C, 0.12.
Under G40A C66G stands 0.164; under A47C A64U, 0.218.
Consider G13A A28U, for which the self-cleavage is 0.495.
In the case of G54A G57A, the self-cleavage was 0.182.
In the case of A45C it was 0.154; in that of G21U C66U, 0.427; in that of C10G A49U, 0.21.
In the case of A43G G57A it was 0.198.
In the case of C4G G34C it was 1.19; in that of A43C U70C, 0.164; in that of U2A A36C, 0.143.
In the case of A30G U53A, the self-cleavage is 0.0621.
In the case of A24U C65U it was 0.39; in that of G32C U55G, 0.0931; in that of A28C G34U, 1.23.
As for U9C C48G, the self-cleavage turned out to be 0.145.
On to A26U G54U, for which the self-cleavage came to 0.34.
U7G A23G: the self-cleavage was 0.752.
Under G17A C46U stands 0.143; under A49C U67A, 0.13.
In the case of U20C A39C it was 0.562; in that of G27C A30C, 0.0463.
